For the assay, the target named is recombinant His-MYC-bHLH-LZ protein. The experiment in a line: BLI.

Drawing on PMC5648601, this text covers Kd for 1 molecule.

B1: recombinant GST-MKK3 protein (enzyme)
chain: MESPASSQPASMPQSKGKSKRKKDLRISCMSKPPAPNPTPPRNLDSRTFITIGDRNFEVEADDLVTISELGRGAYGVVEKVRHAQSGTIMAVKRIRATVNSQEQKRLLMDLDINMRTVDCFYTVTFYGALFREGDVWICMELMDTSLDKFYRKVLDKNMTIPEDILGEIAVSIVRALEHLHSKLSVIHRDVKPSNVLINKEGHVKMCDFGISGYLVDSVAKTMDAGCKPYMAPERINPELNQKGYNVKSDVWSLGITMIEMAILRFPYESWGTPFQQLKQVVEEPSPQLPADRFSPEFVDFTAQCLRKNPAERMSYLELMEHPFFTLHKTKKTDIAAFVKEILGEDS
B1: the Kd was determined as 225 nM.
